Experimental data published in patent US20100075898A1 (BEN GURION UNIVERSITY OF THE NEGEV RESEARCH AND DEVELOPMENT …, published 2010).
Each block holds one binder with its values, some of them ahead of it.

How the values were obtained:
[1] = molecular target: T1, purified rat brain HK-I (Hexokinase 1) (rat, UniProt P05708 1-918); assay: channel currents of planar-lipid-bilayer-reconstituted VDAC1 before and after addition of HK-I
T1 construct: Purified from rat brain; immobilised on the SPR chip or added (28 mU/ml) to bilayer-reconstituted VDAC1; also called HK-1
T1 sequence (looked up): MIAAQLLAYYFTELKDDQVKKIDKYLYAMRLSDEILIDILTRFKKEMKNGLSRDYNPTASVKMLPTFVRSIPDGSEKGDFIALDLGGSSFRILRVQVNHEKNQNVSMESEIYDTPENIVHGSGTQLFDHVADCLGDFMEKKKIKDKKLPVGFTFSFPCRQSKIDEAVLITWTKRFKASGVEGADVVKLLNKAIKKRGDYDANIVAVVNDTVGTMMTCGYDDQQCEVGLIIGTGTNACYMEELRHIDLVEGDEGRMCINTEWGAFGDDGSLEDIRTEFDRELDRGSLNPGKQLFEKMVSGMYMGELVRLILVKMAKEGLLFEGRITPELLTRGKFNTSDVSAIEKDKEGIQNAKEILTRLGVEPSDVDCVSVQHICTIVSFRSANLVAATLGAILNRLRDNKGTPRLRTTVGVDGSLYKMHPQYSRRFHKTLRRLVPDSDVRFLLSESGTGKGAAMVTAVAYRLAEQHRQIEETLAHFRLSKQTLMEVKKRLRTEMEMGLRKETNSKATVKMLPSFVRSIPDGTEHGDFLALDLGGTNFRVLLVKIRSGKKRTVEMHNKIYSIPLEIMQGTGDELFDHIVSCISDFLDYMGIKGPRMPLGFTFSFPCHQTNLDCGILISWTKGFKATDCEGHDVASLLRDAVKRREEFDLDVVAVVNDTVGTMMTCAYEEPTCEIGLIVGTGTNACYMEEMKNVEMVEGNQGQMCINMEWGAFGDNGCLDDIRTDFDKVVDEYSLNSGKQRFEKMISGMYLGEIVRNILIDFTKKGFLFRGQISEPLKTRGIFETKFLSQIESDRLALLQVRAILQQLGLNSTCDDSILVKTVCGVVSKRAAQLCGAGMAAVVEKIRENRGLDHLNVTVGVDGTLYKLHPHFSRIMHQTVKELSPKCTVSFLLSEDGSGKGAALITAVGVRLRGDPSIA
Description: (§1) The dashed lines indicate the zero and the maximal current levels.
(§2) Briefly, PLB were prepared from soybean asolectin dissolved in n-decane (50 mg/ml) in a chamber containing 10 mM Hepes/KOH, pH 7.4 and 0.5 or 1M NaCl (cis/trans). Only PLBs with a resistance greater than 100 GΩ were used. Purified VDAC (about 1 ng) was added to the chamber defined as the cis side. After insertion of one or more channels into the PLB, excess protein was removed by perfusion of the cis chamber with 20 volumes of a same solution. Currents were recorded under voltage-clamp mode using a Bilayer Clamp amplifier (Warner Instruments, Hamden, Conn.). Currents were measured with respect to the trans side of the membrane (ground). The currents were low-pass filtered at 1 kHz, using a Bessal filter (Frequency Devices, Haverhill, Mass.) and digitized on-line using a Digidata 1200 interface board and pCLAMP 6 software (Axon Instruments). Sigma Plot 2000 scientific software was used for data analyses. Experiments were performed at 23-25° C. […] N-terminal VDAC1 peptides were diluted in running buffer (150 mM NaCl, 0.005% Tween-20, 4% (V/V) DMSO, 10 mM PBS, pH, 7.4) and injected onto the sensor chip at varying concentrations at a flow rate of 40 μl/min at 25° C.

[2] = molecular target: T1, purified rat brain HK-I (Hexokinase 1); assay: channel currents of planar-lipid-bilayer-reconstituted mVDAC1 before and after addition of HK-I (28 mU/ml)
Description: as §1, §2

[3] = molecular target: T2, native mVDAC1 (mouse VDAC1)
T2 chain: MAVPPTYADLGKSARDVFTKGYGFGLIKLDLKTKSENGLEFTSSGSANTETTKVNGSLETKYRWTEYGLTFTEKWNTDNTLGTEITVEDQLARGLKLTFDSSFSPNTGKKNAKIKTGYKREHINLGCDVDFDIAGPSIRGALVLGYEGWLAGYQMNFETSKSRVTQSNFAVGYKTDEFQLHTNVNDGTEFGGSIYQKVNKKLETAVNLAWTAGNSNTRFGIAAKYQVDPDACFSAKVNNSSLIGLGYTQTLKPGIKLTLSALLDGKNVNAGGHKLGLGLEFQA

[4] = molecular target: T3, Δ(1-26)mVDAC1 (N-terminal truncated mouse VDAC1 lacking amino acids 1-26)
T3 chain: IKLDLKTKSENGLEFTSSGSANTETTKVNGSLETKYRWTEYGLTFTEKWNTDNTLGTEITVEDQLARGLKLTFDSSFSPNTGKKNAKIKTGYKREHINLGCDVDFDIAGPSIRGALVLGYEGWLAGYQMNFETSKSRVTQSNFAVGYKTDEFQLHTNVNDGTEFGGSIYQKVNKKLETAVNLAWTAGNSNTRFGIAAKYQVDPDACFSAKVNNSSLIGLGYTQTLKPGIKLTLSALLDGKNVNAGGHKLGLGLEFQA

binding result [1]: no binding (tested: 28 mU/ml)
B1: Δ(1-26)mVDAC1 (N-terminal truncated mouse VDAC1 lacking amino acids 1-26) (other)
chain: IKLDLKTKSENGLEFTSSGSANTETTKVNGSLETKYRWTEYGLTFTEKWNTDNTLGTEITVEDQLARGLKLTFDSSFSPNTGKKNAKIKTGYKREHINLGCDVDFDIAGPSIRGALVLGYEGWLAGYQMNFETSKSRVTQSNFAVGYKTDEFQLHTNVNDGTEFGGSIYQKVNKKLETAVNLAWTAGNSNTRFGIAAKYQVDPDACFSAKVNNSSLIGLGYTQTLKPGIKLTLSALLDGKNVNAGGHKLGLGLEFQA
notes: Expressed in porin-less yeast, purified and reconstituted into planar lipid bilayers; also called N-terminus truncated protein; truncated version of VDAC1

binding result [2]: binds
B2: native mVDAC1 (mouse VDAC1) (other)
chain: MAVPPTYADLGKSARDVFTKGYGFGLIKLDLKTKSENGLEFTSSGSANTETTKVNGSLETKYRWTEYGLTFTEKWNTDNTLGTEITVEDQLARGLKLTFDSSFSPNTGKKNAKIKTGYKREHINLGCDVDFDIAGPSIRGALVLGYEGWLAGYQMNFETSKSRVTQSNFAVGYKTDEFQLHTNVNDGTEFGGSIYQKVNKKLETAVNLAWTAGNSNTRFGIAAKYQVDPDACFSAKVNNSSLIGLGYTQTLKPGIKLTLSALLDGKNVNAGGHKLGLGLEFQA
notes: Native full-length mouse VDAC1 expressed in porin-less yeast, purified and reconstituted into planar lipid bilayers; also called native VDAC1; bilayer-reconstituted native VDAC1

B3: purified rat brain HK-I (Hexokinase 1) (protein)
chain: MIAAQLLAYYFTELKDDQVKKIDKYLYAMRLSDEILIDILTRFKKEMKNGLSRDYNPTASVKMLPTFVRSIPDGSEKGDFIALDLGGSSFRILRVQVNHEKNQNVSMESEIYDTPENIVHGSGTQLFDHVADCLGDFMEKKKIKDKKLPVGFTFSFPCRQSKIDEAVLITWTKRFKASGVEGADVVKLLNKAIKKRGDYDANIVAVVNDTVGTMMTCGYDDQQCEVGLIIGTGTNACYMEELRHIDLVEGDEGRMCINTEWGAFGDDGSLEDIRTEFDRELDRGSLNPGKQLFEKMVSGMYMGELVRLILVKMAKEGLLFEGRITPELLTRGKFNTSDVSAIEKDKEGIQNAKEILTRLGVEPSDVDCVSVQHICTIVSFRSANLVAATLGAILNRLRDNKGTPRLRTTVGVDGSLYKMHPQYSRRFHKTLRRLVPDSDVRFLLSESGTGKGAAMVTAVAYRLAEQHRQIEETLAHFRLSKQTLMEVKKRLRTEMEMGLRKETNSKATVKMLPSFVRSIPDGTEHGDFLALDLGGTNFRVLLVKIRSGKKRTVEMHNKIYSIPLEIMQGTGDELFDHIVSCISDFLDYMGIKGPRMPLGFTFSFPCHQTNLDCGILISWTKGFKATDCEGHDVASLLRDAVKRREEFDLDVVAVVNDTVGTMMTCAYEEPTCEIGLIVGTGTNACYMEEMKNVEMVEGNQGQMCINMEWGAFGDNGCLDDIRTDFDKVVDEYSLNSGKQRFEKMISGMYLGEIVRNILIDFTKKGFLFRGQISEPLKTRGIFETKFLSQIESDRLALLQVRAILQQLGLNSTCDDSILVKTVCGVVSKRAAQLCGAGMAAVVEKIRENRGLDHLNVTVGVDGTLYKLHPHFSRIMHQTVKELSPKCTVSFLLSEDGSGKGAALITAVGVRLRGDPSIA
channel activity (currents) of bilayer-reconstituted VDAC1 [3]: addition of HK-I to bilayer-reconstituted native VDAC1 induced the channel to fluctuate between the fully open, sub-conducting state to a stable, long-lived low-conducting state
channel activity (currents) of bilayer-reconstituted VDAC1 [4]: HK-I had no effect on channel activity of the truncated version of VDAC1
